From US20260250398A1

molecular target: FZD1/2/4/5/7/8; test: cell-based or functional assay

| Binder | TOPFLASH % Wnt Maxima [% Wnt Maxima] | TOPFLASH EC50 [nM] | TOPFLASH Maximal Signal (% Wnt3a maxima) (% Wnt3a maxima) |
| --- | --- | --- | --- |
| CM0011 (FZD Diabody-Fc-LRP Diabody; paratopes 5019; 2539, 2542) (bispecific antibody) chain 1: MNLLLILTFVAAAVAEFEVQLVESGGGLVQPGGSLRLSCAASGFNIGSSSIHWVRQAPGKGLEWVASIYSAFASTSYADSVKGRFTISADTSKNTAYLQMNSLRAEDTAVYYCARYHFPFGFALDYWGQGTLVTVSSGGGGSDIQMTQSPSSLSASVGDRVTITCRASQSVSSAVAWYQQKPGKAPKLLIYSASSLYSGVPSRFSGSRSGTDFTLTISSLQPEDFATYYCQQGVYLFTFGQGTKVEIKLEDKTHTKVEPKSSDKTHNCPPCPAPELLGGPSVFLFPPKPKDTLMISRTPEVTCVVVDVSHEDPEVKFNWYVDGVEVHNAKTKPREEQYNSTYRVVSVLTVLHQDWLNGKEYKCKVSNKALPAPIEKTISKAKGQPREPQVYTLPPIRELMTSNQVSLSCAVKGFYPSDIAVEWESNGQPENNYKTTPPVLDSDGSFFLVSKLTVDKSRWQQGNVFSCSVMHEALHNHYTQKSLSLSPGKSGSETPGTSESATPESGGGEVQLVESGGGLVQPGGSLRLSCAASGFNISSYYIHWVRQAPGKGLEWVASIYSSYGYTSYADSVKGRFTISADTSKNTAYLQMNSLRAEDTAVYYCARTVRGSKKPYFSGWAMDYWGQGTLVTVSSGGGGSDIQMTQSPSSLSASVGDRVTITCRASQSVSSAVAWYQQKPGKAPKLLIYSASSLYSGVPSRFSGSRSGTDFTLTISSLQPEDFATYYCQQYSWGPFTFGQGTKVEIK chain 2: MNLLLILTFVAAAVAEFEVQLVESGGGLVQPGGSLRLSCAASGFNIGSSSIHWVRQAPGKGLEWVASIYSAFASTSYADSVKGRFTISADTSKNTAYLQMNSLRAEDTAVYYCARYHFPFGFALDYWGQGTLVTVSSGGGGSDIQMTQSPSSLSASVGDRVTITCRASQSVSSAVAWYQQKPGKAPKLLIYSASSLYSGVPSRFSGSRSGTDFTLTISSLQPEDFATYYCQQGVYLFTFGQGTKVEIKLEDKTHTKVEPKTSDKTHTCPPCPAPELLGGPSVFLFPPKPKDTLMISRTPEVTCVVVDVSHEDPEVKFNWYVDGVEVHNAKTKPREEQYNSTYRVVSVLTVLHQDWLNGKEYKCKVSNKALPAPIEKTISKAKGQPREPMVFDLPPSREEMTKNQVSLWCMVKGFYPSDIAVEWESNGQPENNYKTTPPVLDSDGSFFLYSKLTVDKSRWQQGNVFSCSVMHEALHNHYTQKSLSLSPGKSGSETPGTSESATPESGGGEVQLVESGGGLVQPGGSLRLSCAASGFNISYSSIHWVRQAPGKGLEWVAYISSYYGYTYYADSVKGRFTISADTSKNTAYLQMNSLRAEDTAVYYCARAHYFPWAGAMDYWGQGTLVTVSSGGGGSDIQMTQSPSSLSASVGDRVTITCRASQSVSSAVAWYQQKPGKAPKLLIYSASSLYSGVPSRFSGSRSGTDFTLTISSLQPEDFATYYCQQYYWPITFGQGTKVEIK | 63 | 0.3 |  |
| CT0001 (FZD IgG-LRP Diabody; paratopes 5016; 2539, 2542) (bispecific antibody) heavy 1: EVQLVESGGGLVQPGGSLRLSCAASGFNIHSSSIHWVRQAPGKGLEWVAATYSSFGSITYADSVKGRFTISADTSKNTAYLQMNSLRAEDTAVYYCARYHHPFGYALDYWGQGTLVTVSSASTKGPSVFPLAPSSKSTSGGTAALGCLVKDYFPEPVTVSWNSGALTSGVHTFPAVLQSSGLYSLSSVVTVPSSSLGTQTYICNVNHKPSNTKVDKKVEPKSCDKTHTCPPCPAPELLGGPSVFLFPPKPKDTLMISRTPEVTCVVVDVSHEDPEVKFNWYVDGVEVHNAKTKPREEQYNSTYRVVSVLTVLHQDWLNGKEYKCKVSNKALPAPIEKTISKAKGQPREPQVYTLPPIRELMTSNQVSLSCAVKGFYPSDIAVEWESNGQPENNYKTTPPVLDSDGSFFLVSKLTVDKSRWQQGNVFSCSVMHEALHNHYTQKSLSLSPGKSGSETPGTSESATPESGGGEVQLVESGGGLVQPGGSLRLSCAASGFNISSYYIHWVRQAPGKGLEWVASIYSSYGYTSYADSVKGRFTISADTSKNTAYLQMNSLRAEDTAVYYCARTVRGSKKPYFSGWAMDYWGQGTLVTVSSGGGGSDIQMTQSPSSLSASVGDRVTITCRASQSVSSAVAWYQQKPGKAPKLLIYSASSLYSGVPSRFSGSRSGTDFTLTISSLQPEDFATYYCQQYSWGPFTFGQGTKVEIK heavy 2: EVQLVESGGGLVQPGGSLRLSCAASGFNIHSSSIHWVRQAPGKGLEWVAATYSSFGSITYADSVKGRFTISADTSKNTAYLQMNSLRAEDTAVYYCARYHHPFGYALDYWGQGTLVTVSSASTKGPSVFPLAPSSKSTSGGTAALGCLVKDYFPEPVTVSWNSGALTSGVHTFPAVLQSSGLYSLSSVVTVPSSSLGTQTYICNVNHKPSNTKVDKKVEPKSCDKTHTCPPCPAPELLGGPSVFLFPPKPKDTLMISRTPEVTCVVVDVSHEDPEVKFNWYVDGVEVHNAKTKPREEQYNSTYRVVSVLTVLHQDWLNGKEYKCKVSNKALPAPIEKTISKAKGQPREPMVFDLPPSREEMTKNQVSLWCMVKGFYPSDIAVEWESNGQPENNYKTTPPVLDSDGSFFLYSKLTVDKSRWQQGNVFSCSVMHEALHNHYTQKSLSLSPGKSGSETPGTSESATPESGGGEVQLVESGGGLVQPGGSLRLSCAASGFNISYSSIHWVRQAPGKGLEWVAYISSYYGYTYYADSVKGRFTISADTSKNTAYLQMNSLRAEDTAVYYCARAHYFPWAGAMDYWGQGTLVTVSSGGGGSDIQMTQSPSSLSASVGDRVTITCRASQSVSSAVAWYQQKPGKAPKLLIYSASSLYSGVPSRFSGSRSGTDFTLTISSLQPEDFATYYCQQYYWPITFGQGTKVEIK light: DIQMTQSPSSLSASVGDRVTITCRASQSVSSAVAWYQQKPGKAPKLLIYSASSLYSGVPSRFSGSRSGTDFTLTISSLQPEDFATYYCQQGVYLFTFGQGTKVEIKRTVAAPSVFIFPPSDEQLKSGTASVVCLLNNFYPREAKVQWKVDNALQSGNSQESVTEQDSKDSTYSLSSTLTLSKADYEKHKVYACEVTHQGLSSPVTKSFNRGEC | 57 | 0.3 |  |
| CM0126 (FZD Diabody-Fc-LRP Diabody; paratopes 5016; 2539, 2542) (bispecific antibody) chain 1: MNLLLILTFVAAAVAEFEVQLVESGGGLVQPGGSLRLSCAASGFNIHSSSIHWVRQAPGKGLEWVAATYSSFGSITYADSVKGRFTISADTSKNTAYLQMNSLRAEDTAVYYCARYHHPFGYALDYWGQGTLVTVSSGGGGSDIQMTQSPSSLSASVGDRVTITCRASQSVSSAVAWYQQKPGKAPKLLIYSASSLYSGVPSRFSGSRSGTDFTLTISSLQPEDFATYYCQQGVYLFTFGQGTKVEIKLEDKTHTKVEPKSSDKTHNCPPCPAPELLGGPSVFLFPPKPKDTLMISRTPEVTCVVVDVSHEDPEVKFNWYVDGVEVHNAKTKPREEQYNSTYRVVSVLTVLHQDWLNGKEYKCKVSNKALPAPIEKTISKAKGQPREPQVYTLPPIRELMTSNQVSLSCAVKGFYPSDIAVEWESNGQPENNYKTTPPVLDSDGSFFLVSKLTVDKSRWQQGNVFSCSVMHEALHNHYTQKSLSLSPGKSGSETPGTSESATPESGGGEVQLVESGGGLVQPGGSLRLSCAASGFNISSYYIHWVRQAPGKGLEWVASIYSSYGYTSYADSVKGRFTISADTSKNTAYLQMNSLRAEDTAVYYCARTVRGSKKPYFSGWAMDYWGQGTLVTVSSGGGGSDIQMTQSPSSLSASVGDRVTITCRASQSVSSAVAWYQQKPGKAPKLLIYSASSLYSGVPSRFSGSRSGTDFTLTISSLQPEDFATYYCQQYSWGPFTFGQGTKVEIK chain 2: MNLLLILTFVAAAVAEFEVQLVESGGGLVQPGGSLRLSCAASGFNIHSSSIHWVRQAPGKGLEWVAATYSSFGSITYADSVKGRFTISADTSKNTAYLQMNSLRAEDTAVYYCARYHHPFGYALDYWGQGTLVTVSSGGGGSDIQMTQSPSSLSASVGDRVTITCRASQSVSSAVAWYQQKPGKAPKLLIYSASSLYSGVPSRFSGSRSGTDFTLTISSLQPEDFATYYCQQGVYLFTFGQGTKVEIKLEDKTHTKVEPKTSDKTHTCPPCPAPELLGGPSVFLFPPKPKDTLMISRTPEVTCVVVDVSHEDPEVKFNWYVDGVEVHNAKTKPREEQYNSTYRVVSVLTVLHQDWLNGKEYKCKVSNKALPAPIEKTISKAKGQPREPMVFDLPPSREEMTKNQVSLWCMVKGFYPSDIAVEWESNGQPENNYKTTPPVLDSDGSFFLYSKLTVDKSRWQQGNVFSCSVMHEALHNHYTQKSLSLSPGKSGSETPGTSESATPESGGGEVQLVESGGGLVQPGGSLRLSCAASGFNISYSSIHWVRQAPGKGLEWVAYISSYYGYTYYADSVKGRFTISADTSKNTAYLQMNSLRAEDTAVYYCARAHYFPWAGAMDYWGQGTLVTVSSGGGGSDIQMTQSPSSLSASVGDRVTITCRASQSVSSAVAWYQQKPGKAPKLLIYSASSLYSGVPSRFSGSRSGTDFTLTISSLQPEDFATYYCQQYYWPITFGQGTKVEIK | 52 | 0.3 |  |
| ANT-1 (LRP Diabody-Fc-FZD Fab; paratopes 2540, 2542; 5016) (bispecific antibody) heavy 1: MNLLLILTFVAAAVAEFEVQLVESGGGLVQPGGSLRLSCAASGFNISSYYIHWVRQAPGKGLEWVASIYSSYGYTSYADSVKGRFTISADTSKNTAYLQMNSLRAEDTAVYYCARTVRGSKKPYFSGWAMDYWGQGTLVTVSSGGGGSDIQMTQSPSSLSASVGDRVTITCRASQSVSSAVAWYQQKPGKAPKLLIYSASSLYSGVPSRFSGSRSGTDFTLTISSLQPEDFATYYCQQYYFLITFGQGTKVEIKLEDKTHTKVEPKSSDKTHNCPPCPAPELLGGPSVFLFPPKPKDTLMISRTPEVTCVVVDVSHEDPEVKFNWYVDGVEVHNAKTKPREEQYNSTYRVVSVLTVLHQDWLNGKEYKCKVSNKALPAPIEKTISKAKGQPREPQVYTLPPIRELMTSNQVSLSCAVKGFYPSDIAVEWESNGQPENNYKTTPPVLDSDGSFFLVSKLTVDKSRWQQGNVFSCSVMHEALHNHYTQKSLSLSPGKSGSETPGTSESATPESGGGEVQLVESGGGLVQPGGSLRLSCAASGFNIHSSSIHWVRQAPGKGLEWVAATYSSFGSITYADSVKGRFTISADTSKNTAYLQMNSLRAEDTAVYYCARYHHPFGYALDYWGQGTLVTVSSASTKGPSVFPLAPSSKSTSGGTAALGCLVKDYFPEPVTVSWNSGALTSGVHTFPAVLQSSGLYSLSSVVTVPSSSLGTQTYICNVNHKPSNTKVDKKVEPKSCDKTHT heavy 2: MNLLLILTFVAAAVAEFEVQLVESGGGLVQPGGSLRLSCAASGFNISYSSIHWVRQAPGKGLEWVASISPYYGYTYYADSVKGRFTISADTSKNTAYLQMNSLRAEDTAVYYCARSSYFPWFSAMDYWGQGTLVTVSSGGGGSDIQMTQSPSSLSASVGDRVTITCRASQSVSSAVAWYQQKPGKAPKLLIYSASSLYSGVPSRFSGSRSGTDFTLTISSLQPEDFATYYCQQYYWPITFGQGTKVEIKLEDKTHTKVEPKTSDKTHTCPPCPAPELLGGPSVFLFPPKPKDTLMISRTPEVTCVVVDVSHEDPEVKFNWYVDGVEVHNAKTKPREEQYNSTYRVVSVLTVLHQDWLNGKEYKCKVSNKALPAPIEKTISKAKGQPREPMVFDLPPSREEMTKNQVSLWCMVKGFYPSDIAVEWESNGQPENNYKTTPPVLDSDGSFFLYSKLTVDKSRWQQGNVFSCSVMHEALHNHYTQKSLSLSPGKSGSETPGTSESATPESGGGEVQLVESGGGLVQPGGSLRLSCAASGFNIHSSSIHWVRQAPGKGLEWVAATYSSFGSITYADSVKGRFTISADTSKNTAYLQMNSLRAEDTAVYYCARYHHPFGYALDYWGQGTLVTVSSASTKGPSVFPLAPSSKSTSGGTAALGCLVKDYFPEPVTVSWNSGALTSGVHTFPAVLQSSGLYSLSSVVTVPSSSLGTQTYICNVNHKPSNTKVDKKVEPKSCDKTHT light: DIQMTQSPSSLSASVGDRVTITCRASQSVSSAVAWYQQKPGKAPKLLIYSASSLYSGVPSRFSGSRSGTDFTLTISSLQPEDFATYYCQQGVYLFTFGQGTKVEIKRTVAAPSVFIFPPSDEQLKSGTASVVCLLNNFYPREAKVQWKVDNALQSGNSQESVTEQDSKDSTYSLSSTLTLSKADYEKHKVYACEVTHQGLSSPVTKSFNRGEC | 49 | 0.7 | 50 |
